Numbered stars: 1 amine (or outer) side, 2 acyl side, 3 side chain; on linkers, the order of the positions; unused ones are H or OH. Square brackets hold non-standard residues; d marks the D form. Side chains are listed from the residue outwards. Ends that are not written are not given here. * marks the point of attachment. γGlu = O=C(O)[C@H](CCC(=O)[*:2])N[*:1]; Palmitoyl = CCCCCCCCCCCCCCCC(=O)*; Aib = CC(C)(N)C(=O)O

Holding throughout (experiment): cell-based or functional assay
One assay concerns the target T1, human GIP receptor (human, UniProt P48546 22-466).
T1 sequence (looked up): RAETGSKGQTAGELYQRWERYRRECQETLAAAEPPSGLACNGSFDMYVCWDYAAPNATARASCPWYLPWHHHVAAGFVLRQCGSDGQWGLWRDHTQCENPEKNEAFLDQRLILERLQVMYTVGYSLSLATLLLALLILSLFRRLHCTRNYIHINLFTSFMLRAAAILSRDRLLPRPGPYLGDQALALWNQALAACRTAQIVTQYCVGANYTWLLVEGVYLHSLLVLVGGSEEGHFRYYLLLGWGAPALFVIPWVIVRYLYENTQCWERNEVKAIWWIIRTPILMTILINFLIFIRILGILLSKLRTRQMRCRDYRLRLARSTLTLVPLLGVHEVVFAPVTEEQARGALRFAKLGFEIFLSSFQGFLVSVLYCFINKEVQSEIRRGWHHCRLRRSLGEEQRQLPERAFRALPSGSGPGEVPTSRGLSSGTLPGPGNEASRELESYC

The target of the next assay is human GLP-1 receptor (human, UniProt P43220 24-463).
The next assay has as its target human glucagon receptor (human, UniProt P47871 26-477).

human glucagon receptor, sequence (P47871 26-477): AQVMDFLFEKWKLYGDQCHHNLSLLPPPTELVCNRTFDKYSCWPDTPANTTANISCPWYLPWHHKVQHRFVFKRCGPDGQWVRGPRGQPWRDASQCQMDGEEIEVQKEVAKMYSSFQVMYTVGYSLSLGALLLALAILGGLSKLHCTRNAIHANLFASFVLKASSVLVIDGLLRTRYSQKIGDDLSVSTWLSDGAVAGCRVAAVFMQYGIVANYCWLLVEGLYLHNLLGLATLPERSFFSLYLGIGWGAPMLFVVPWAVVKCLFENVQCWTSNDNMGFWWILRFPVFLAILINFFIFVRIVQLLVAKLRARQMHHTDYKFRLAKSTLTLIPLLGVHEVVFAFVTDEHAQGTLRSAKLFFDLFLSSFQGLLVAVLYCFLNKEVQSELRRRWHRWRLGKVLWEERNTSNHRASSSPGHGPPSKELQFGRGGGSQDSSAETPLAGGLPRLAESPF

B1: SEQ ID NO: 10 (peptide)
peptide: H[Aib]HGTFTSDLSKLK([γGlu-γGlu-Palmitoyl])EEQRQ[Aib]EFIEWLKAGGPPS[Aib]KPPPK-NH2
modifications: N-terminus assumed
SMILES: CCCCCCCCCCCCCCCC(=O)N[C@@H](CCC(=O)N[C@@H](CCC(=O)NCCCC[C@H](NC(=O)[C@H](CC(C)C)NC(=O)[C@H](CCCCN)NC(=O)[C@H](CO)NC(=O)[C@H](CC(C)C)NC(=O)[C@H](CC(=O)O)NC(=O)[C@H](CO)NC(=O)[C@@H](NC(=O)[C@H](Cc1ccccc1)NC(=O)[C@@H](NC(=O)CNC(=O)[C@H](Cc1c[nH]cn1)NC(=O)C(C)(C)NC(=O)[C@@H](N)Cc1c[nH]cn1)[C@@H](C)O)[C@@H](C)O)C(=O)N[C@@H](CCC(=O)O)C(=O)N[C@@H](CCC(=O)O)C(=O)N[C@@H](CCC(N)=O)C(=O)N[C@@H](CCCNC(=N)N)C(=O)N[C@@H](CCC(N)=O)C(=O)NC(C)(C)C(=O)N[C@@H](CCC(=O)O)C(=O)N[C@@H](Cc1ccccc1)C(=O)N[C@H](C(=O)N[C@@H](CCC(=O)O)C(=O)N[C@@H](Cc1c[nH]c2ccccc12)C(=O)N[C@@H](CC(C)C)C(=O)N[C@@H](CCCCN)C(=O)N[C@@H](C)C(=O)NCC(=O)NCC(=O)N1CCC[C@H]1C(=O)N1CCC[C@H]1C(=O)N[C@@H](CO)C(=O)NC(C)(C)C(=O)N[C@@H](CCCCN)C(=O)N1CCC[C@H]1C(=O)N1CCC[C@H]1C(=O)N1CCC[C@H]1C(=O)N[C@@H](CCCCN)C(N)=O)[C@@H](C)CC)C(=O)O)C(=O)O
On to B1, for which, in the assay with human GIP receptor, the “EC50 hGIP R (cAMP formation)” value is 1.1 pM. Also, the “EC50 hGLP-1R (cAMP formation)” value in the assay with human GLP-1 receptor was 2.3 pM. Besides, in the assay with human glucagon receptor, the “EC50 hGlucagon R (cAMP formation)” value stood at 1.6 pM.

B2: SEQ ID NO: 9 (peptide)
peptide: H[Aib]HGTFTSDLSKLK([γGlu-γGlu-Palmitoyl])EEQRQKEFIEWLKA[dA]GPPS[Aib]KPPPK-NH2
modifications: N-terminus assumed
SMILES: CCCCCCCCCCCCCCCC(=O)N[C@@H](CCC(=O)N[C@@H](CCC(=O)NCCCC[C@H](NC(=O)[C@H](CC(C)C)NC(=O)[C@H](CCCCN)NC(=O)[C@H](CO)NC(=O)[C@H](CC(C)C)NC(=O)[C@H](CC(=O)O)NC(=O)[C@H](CO)NC(=O)[C@@H](NC(=O)[C@H](Cc1ccccc1)NC(=O)[C@@H](NC(=O)CNC(=O)[C@H](Cc1c[nH]cn1)NC(=O)C(C)(C)NC(=O)[C@@H](N)Cc1c[nH]cn1)[C@@H](C)O)[C@@H](C)O)C(=O)N[C@@H](CCC(=O)O)C(=O)N[C@@H](CCC(=O)O)C(=O)N[C@@H](CCC(N)=O)C(=O)N[C@@H](CCCNC(=N)N)C(=O)N[C@@H](CCC(N)=O)C(=O)N[C@@H](CCCCN)C(=O)N[C@@H](CCC(=O)O)C(=O)N[C@@H](Cc1ccccc1)C(=O)N[C@H](C(=O)N[C@@H](CCC(=O)O)C(=O)N[C@@H](Cc1c[nH]c2ccccc12)C(=O)N[C@@H](CC(C)C)C(=O)N[C@@H](CCCCN)C(=O)N[C@@H](C)C(=O)N[C@H](C)C(=O)NCC(=O)N1CCC[C@H]1C(=O)N1CCC[C@H]1C(=O)N[C@@H](CO)C(=O)NC(C)(C)C(=O)N[C@@H](CCCCN)C(=O)N1CCC[C@H]1C(=O)N1CCC[C@H]1C(=O)N1CCC[C@H]1C(=O)N[C@@H](CCCCN)C(N)=O)[C@@H](C)CC)C(=O)O)C(=O)O
Turning to B2, the “EC50 hGIP R (cAMP formation)” value with human GIP receptor is 2.6 pM. In the assay with human GLP-1 receptor, the “EC50 hGLP-1R (cAMP formation)” value came to 1.6 pM. Also, the “EC50 hGlucagon R (cAMP formation)” value with human glucagon receptor worked out at 2.9 pM.
In the same order, the values of H[Aib]HGTFTSDLSKLK([γGlu-γGlu-Palmitoyl])EEQRQ[Aib]EFIEWLKAGGHPS[Aib]KPPPK-NH2 [SEQ ID NO: 12] are 1.9 pM, 1.8 pM and 2 pM.

B3: SEQ ID NO: 7 (peptide)
peptide: H[Aib]HGTFTSDLSKLK([γGlu-γGlu-Palmitoyl])EEQRQKEFIEWLKA[dA]GHPS[Aib]KPPPK-NH2
modifications: N-terminus assumed
SMILES: CCCCCCCCCCCCCCCC(=O)N[C@@H](CCC(=O)N[C@@H](CCC(=O)NCCCC[C@H](NC(=O)[C@H](CC(C)C)NC(=O)[C@H](CCCCN)NC(=O)[C@H](CO)NC(=O)[C@H](CC(C)C)NC(=O)[C@H](CC(=O)O)NC(=O)[C@H](CO)NC(=O)[C@@H](NC(=O)[C@H](Cc1ccccc1)NC(=O)[C@@H](NC(=O)CNC(=O)[C@H](Cc1c[nH]cn1)NC(=O)C(C)(C)NC(=O)[C@@H](N)Cc1c[nH]cn1)[C@@H](C)O)[C@@H](C)O)C(=O)N[C@@H](CCC(=O)O)C(=O)N[C@@H](CCC(=O)O)C(=O)N[C@@H](CCC(N)=O)C(=O)N[C@@H](CCCNC(=N)N)C(=O)N[C@@H](CCC(N)=O)C(=O)N[C@@H](CCCCN)C(=O)N[C@@H](CCC(=O)O)C(=O)N[C@@H](Cc1ccccc1)C(=O)N[C@H](C(=O)N[C@@H](CCC(=O)O)C(=O)N[C@@H](Cc1c[nH]c2ccccc12)C(=O)N[C@@H](CC(C)C)C(=O)N[C@@H](CCCCN)C(=O)N[C@@H](C)C(=O)N[C@H](C)C(=O)NCC(=O)N[C@@H](Cc1c[nH]cn1)C(=O)N1CCC[C@H]1C(=O)N[C@@H](CO)C(=O)NC(C)(C)C(=O)N[C@@H](CCCCN)C(=O)N1CCC[C@H]1C(=O)N1CCC[C@H]1C(=O)N1CCC[C@H]1C(=O)N[C@@H](CCCCN)C(N)=O)[C@@H](C)CC)C(=O)O)C(=O)O
For the molecule B3, the “EC50 hGIP R (cAMP formation)” value in the assay with human GIP receptor came out at 2.6 pM. The “EC50 hGLP-1R (cAMP formation)” value with human GLP-1 receptor was 1.7 pM. Besides, in the assay with human glucagon receptor, the “EC50 hGlucagon R (cAMP formation)” value is 3.2 pM.
For H[Aib]HGTFTSDLSKLK([γGlu-γGlu-Palmitoyl])EEQRQKEFIEWLKAGGPPS[Aib]KPPPK-NH2 [SEQ ID NO: 8], the “EC50 hGIP R (cAMP formation)” value in the assay with human GIP receptor turned out to be 1.6 pM. The “EC50 hGLP-1R (cAMP formation)” value with human GLP-1 receptor stood at 1.3 pM. The “EC50 hGlucagon R (cAMP formation)” value with human glucagon receptor stood at 2 pM.

B4: SEQ ID NO: 13 (peptide)
peptide: H[Aib]HGTFTSDLSKLK([γGlu-γGlu-Palmitoyl])EEQRQ[Aib]EFIEWLKA[dA]GHPS[Aib]KPPPK-NH2
modifications: N-terminus assumed
SMILES: CCCCCCCCCCCCCCCC(=O)N[C@@H](CCC(=O)N[C@@H](CCC(=O)NCCCC[C@H](NC(=O)[C@H](CC(C)C)NC(=O)[C@H](CCCCN)NC(=O)[C@H](CO)NC(=O)[C@H](CC(C)C)NC(=O)[C@H](CC(=O)O)NC(=O)[C@H](CO)NC(=O)[C@@H](NC(=O)[C@H](Cc1ccccc1)NC(=O)[C@@H](NC(=O)CNC(=O)[C@H](Cc1c[nH]cn1)NC(=O)C(C)(C)NC(=O)[C@@H](N)Cc1c[nH]cn1)[C@@H](C)O)[C@@H](C)O)C(=O)N[C@@H](CCC(=O)O)C(=O)N[C@@H](CCC(=O)O)C(=O)N[C@@H](CCC(N)=O)C(=O)N[C@@H](CCCNC(=N)N)C(=O)N[C@@H](CCC(N)=O)C(=O)NC(C)(C)C(=O)N[C@@H](CCC(=O)O)C(=O)N[C@@H](Cc1ccccc1)C(=O)N[C@H](C(=O)N[C@@H](CCC(=O)O)C(=O)N[C@@H](Cc1c[nH]c2ccccc12)C(=O)N[C@@H](CC(C)C)C(=O)N[C@@H](CCCCN)C(=O)N[C@@H](C)C(=O)N[C@H](C)C(=O)NCC(=O)N[C@@H](Cc1c[nH]cn1)C(=O)N1CCC[C@H]1C(=O)N[C@@H](CO)C(=O)NC(C)(C)C(=O)N[C@@H](CCCCN)C(=O)N1CCC[C@H]1C(=O)N1CCC[C@H]1C(=O)N1CCC[C@H]1C(=O)N[C@@H](CCCCN)C(N)=O)[C@@H](C)CC)C(=O)O)C(=O)O
Take B4: the “EC50 hGIP R (cAMP formation)” value in the assay with human GIP receptor worked out at 2.7 pM. The “EC50 hGLP-1R (cAMP formation)” value with human GLP-1 receptor was 2.8 pM. For the same molecule, the “EC50 hGlucagon R (cAMP formation)” value with human glucagon receptor was found to be 2.1 pM.

B5: SEQ ID NO: 11 (peptide)
peptide: H[Aib]HGTFTSDLSKLK([γGlu-γGlu-Palmitoyl])EEQRQ[Aib]EFIEWLKA[dA]GPPS[Aib]KPPPK-NH2
modifications: N-terminus assumed
SMILES: CCCCCCCCCCCCCCCC(=O)N[C@@H](CCC(=O)N[C@@H](CCC(=O)NCCCC[C@H](NC(=O)[C@H](CC(C)C)NC(=O)[C@H](CCCCN)NC(=O)[C@H](CO)NC(=O)[C@H](CC(C)C)NC(=O)[C@H](CC(=O)O)NC(=O)[C@H](CO)NC(=O)[C@@H](NC(=O)[C@H](Cc1ccccc1)NC(=O)[C@@H](NC(=O)CNC(=O)[C@H](Cc1c[nH]cn1)NC(=O)C(C)(C)NC(=O)[C@@H](N)Cc1c[nH]cn1)[C@@H](C)O)[C@@H](C)O)C(=O)N[C@@H](CCC(=O)O)C(=O)N[C@@H](CCC(=O)O)C(=O)N[C@@H](CCC(N)=O)C(=O)N[C@@H](CCCNC(=N)N)C(=O)N[C@@H](CCC(N)=O)C(=O)NC(C)(C)C(=O)N[C@@H](CCC(=O)O)C(=O)N[C@@H](Cc1ccccc1)C(=O)N[C@H](C(=O)N[C@@H](CCC(=O)O)C(=O)N[C@@H](Cc1c[nH]c2ccccc12)C(=O)N[C@@H](CC(C)C)C(=O)N[C@@H](CCCCN)C(=O)N[C@@H](C)C(=O)N[C@H](C)C(=O)NCC(=O)N1CCC[C@H]1C(=O)N1CCC[C@H]1C(=O)N[C@@H](CO)C(=O)NC(C)(C)C(=O)N[C@@H](CCCCN)C(=O)N1CCC[C@H]1C(=O)N1CCC[C@H]1C(=O)N1CCC[C@H]1C(=O)N[C@@H](CCCCN)C(N)=O)[C@@H](C)CC)C(=O)O)C(=O)O
On to B5, for which the “EC50 hGIP R (cAMP formation)” value in the assay with human GIP receptor worked out at 1.5 pM. Moreover, in the assay with human GLP-1 receptor, the “EC50 hGLP-1R (cAMP formation)” value was 2.9 pM. The “EC50 hGlucagon R (cAMP formation)” value with human glucagon receptor came out at 2.1 pM.

These data come from US20180155406A1 (Sanofi, published 2018).
